# Reference: publication PMC11866011
# Tests used:
# [1] = target: EncA-157ST (Myxococcus xanthus encapsulin shell protein EncA with the SpyTag peptide inserted between residues 157 and 158) (Myxococcus xanthus | Streptococcus pyogenes) (UniProt Q1D6H4); test: negative-stain TEM; purified empty (unloaded) nanocompartments, 0.01-0.03 mg/mL, uranyl acetate 0.5% stain; subunit number read from the particle diameter
# [2] = target: EncA-157ST (Myxococcus xanthus encapsulin shell protein EncA with the SpyTag peptide inserted between residues 157 and 158) (Myxococcus xanthus | Streptococcus pyogenes) (UniProt Q1D6H4); test: negative-stain TEM; purified nanocompartments loaded with sfGFP-CLP (coexpressed), 0.01-0.03 mg/mL, uranyl acetate 0.5% stain; subunit number read from the particle diameter
# [3] = target: EncA-ST (Myxococcus xanthus encapsulin shell protein EncA with the SpyTag peptide fused to its C-terminus) (Myxococcus xanthus | Streptococcus pyogenes); test: negative-stain TEM; purified empty (unloaded) nanocompartments, 0.01-0.03 mg/mL, uranyl acetate 0.5% stain; subunit number read from the particle diameter
# [4] = target: EncA-ST (Myxococcus xanthus encapsulin shell protein EncA with the SpyTag peptide fused to its C-terminus) (Myxococcus xanthus | Streptococcus pyogenes); test: negative-stain TEM; purified nanocompartments loaded with sfGFP-CLP (coexpressed), 0.01-0.03 mg/mL, uranyl acetate 0.5% stain; subunit number read from the particle diameter
Substance,stoichiometry N [1] [subunits],stoichiometry N [2] [subunits],stoichiometry N [3] [subunits],stoichiometry N [4] [subunits]
EncA-157ST (Myxococcus xanthus encapsulin shell protein EncA with the SpyTag peptide inserted between residues 157 and 158) (from UniProt Q1D6H4 1-157; Q1D6H4 158-287),60,180,–,–
EncA-ST (Myxococcus xanthus encapsulin shell protein EncA with the SpyTag peptide fused to its C-terminus),–,–,60,180
